Values quoted from earlier work, collected in paper PMC3478875.
Read-outs that look alike come from different tables or passages of the source.

Key:
[1] = target: plasminogen (Homo sapiens) (UniProt P00747)
[2] = target: plasminogen (Homo sapiens) (UniProt P00747); remark: listed apart in the source
[3] = target: plasminogen (Homo sapiens) (UniProt P00747); remark: listed apart in the source
plasmin (Homo sapiens) = plasmin (Homo sapiens) (UniProt P00747)
[4] = target: Glu-plasminogen (Homo sapiens) (UniProt P00747)
[5] = target: Glu-plasminogen (Homo sapiens) (UniProt P00747); remark: listed apart in the source
[6] = target: Lys-plasminogen (Homo sapiens) (UniProt P00747)

DnaK (from UniProt B8DT62)
Kd [1]: 12 nM

Fructose-1,6-bisphosphate aldolase (from UniProt P9WQA2)
Kd [2]: 6.73 nM

GAPDH (from UniProt Q59906)
Kd [3]: 220 nM | Kd (plasmin (Homo sapiens)): 25 nM

Outer surface protein A (OspA) (from UniProt Q09087)
Kd [4]: 260 µM

alpha-enolase (from UniProt P69949)
Kd [5]: 1.6 nM | Kd [6]: 127 nM
